Here are results for one substance from patent US5759769.

For the assay, the target named is CLTB-106 (negative control). Description: ELISA, peptide at 1 ug per well, 2F5 at 40 ng per well; negative control.

Consider “human neutralizing monoclonal antibody 2F5”, for which the Absorbance (450 nm) (absorbance at 450 nm) stood at 0.07.
